Results from the RNAGym collection of RNA variant scans (doi:10.7554/elife.80360).

B1: Hairpin Ribozyme (parent)
chain: GUCCUCUUUCACGUGCGCGUGAAAGAGAGAAGUGAACCAGAGAAACACACGUUGUGGUAUAUUACCUGGUA

Variants of: B1
Test: self-cleavage, relative activity (ratio to wild type); higher = more cleavage; co-transcriptional

Variant | self-cleavage
GUACUCUUUCACGUGCGCGUGAAAGAGAGAAGUGAACCAGAGAAACACACGUUAUGGUAUAUUACCUGGUA | 0.351
GUACUCUUUCACGUGCGCGUGAAAGAGAGAAGUGAACCAGAGAAACACACGUUCUGGUAUAUUACCUGGUA | 0.206
GUACUCUUUCACGUGCGCGUGAAAGAGAGAAGUGAACCAGAGAAACACACGUUGUAGUAUAUUACCUGGUA | 0.127
GUACUCUUUCACGUGCGCGUGAAAGAGAGAAGUGAACCAGAGAAACACACGUUGUUGUAUAUUACCUGGUA | 0.162
GUACUCUUUCACGUGCGCGUGAAAGAGAGAAGUGAACCAGAGAAACACACGUUGUGCUAUAUUACCUGGUA | 0.169
GUACUCUUUCACGUGCGCGUGAAAGAGAGAAGUGAACCAGAGAAACACACGUUGUGGUAUAUUACCUGCUA | 0.342
GUACACUUUCACGUGCGCGUGAAAGAGAGAAGUGAACCAGAGAAACACACGUUGUGGUAUAUUACCUGGUA | 0.214
GUACUCCUUCACGUGCGCGUGAAAGAGAGAAGUGAACCAGAGAAACACACGUUGUGGUAUAUUACCUGGUA | 0.621
GUACUCUCUCACGUGCGCGUGAAAGAGAGAAGUGAACCAGAGAAACACACGUUGUGGUAUAUUACCUGGUA | 0.427
GUACUCUUACACGUGCGCGUGAAAGAGAGAAGUGAACCAGAGAAACACACGUUGUGGUAUAUUACCUGGUA | 0.401
GUACUCUUCCACGUGCGCGUGAAAGAGAGAAGUGAACCAGAGAAACACACGUUGUGGUAUAUUACCUGGUA | 0.532
GUACUCUUGCACGUGCGCGUGAAAGAGAGAAGUGAACCAGAGAAACACACGUUGUGGUAUAUUACCUGGUA | 0.576
GUACUCUUUCACGGGCGCGUGAAAGAGAGAAGUGAACCAGAGAAACACACGUUGUGGUAUAUUACCUGGUA | 0.623
GUACUCUUUCACGUGCGCGAGAAAGAGAGAAGUGAACCAGAGAAACACACGUUGUGGUAUAUUACCUGGUA | 0.582
GUACUCUUUCACGUGCGCGGGAAAGAGAGAAGUGAACCAGAGAAACACACGUUGUGGUAUAUUACCUGGUA | 0.607
GUACUCUUUCACGUGCGCGUGAAAGAGAGAAGAGAACCAGAGAAACACACGUUGUGGUAUAUUACCUGGUA | 0.0769
GUACUCUUUCACGUGCGCGUGAAAGAGAGAAGUGAACCAGAGAAACACACGAUGUGGUAUAUUACCUGGUA | 0.7
GUACUCUUUCACGUGCGCGUGAAAGAGAGAAGUGAACCAGAGAAACACACGUGGUGGUAUAUUACCUGGUA | 0.613
GUACUCUUUCACGUGCGCGUGAAAGAGAGAAGUGAACCAGAGAAACACACGUUGAGGUAUAUUACCUGGUA | 0.172
GUACUCUUUCACGUGCGCGUGAAAGAGAGAAGUGAACCAGAGAAACACACGUUGUGGUACAUUACCUGGUA | 1.07
GUACUCUUUCACGUGCGCGUGAAAGAGAGAAGUGAACCAGAGAAACACACGUUGUGGUAUACUACCUGGUA | 0.2
GUACUCUUUCACGUGCGCGUGAAAGAGAGAAGUGAACCAGAGAAACACACGUUGUGGUAUAUUACCAGGUA | 0.132
GUACUCUUUCACGUGCGCGUGAAAGAGAGAAGUGAACCAGAGAAACACACGUUGUGGUAUAUUACCGGGUA | 0.199
GUGCUCUUUCACGUGCGCGUGAAAGAGAGAAGUGAACCAGAGAAACACACGUUGUGGUAUAUUACCUGGUA | 0.296
GUGCUCUUUCACGUGCGCGUGGAAGAGAGAAGUGAACCAGAGAAACACACGUUGUGGUAUAUUACCUGGUA | 0.264
GUGCUCUUUCACGUGCGCGUGAAAGGGAGAAGUGAACCAGAGAAACACACGUUGUGGUAUAUUACCUGGUA | 0.338

Variant | self-cleavage
GUGCUCUUUCACGUGCGCGUGAAAGAGUGAAGUGAACCAGAGAAACACACGUUGUGGUAUAUUACCUGGUA | 0.647
GUGCUCUUUCACGUGCGCGUGAAAGAGAGGAGUGAACCAGAGAAACACACGUUGUGGUAUAUUACCUGGUA | 0.1
GUGCUCUUUCACGUGCGCGUGAAAGAGAGAAGUGGACCAGAGAAACACACGUUGUGGUAUAUUACCUGGUA | 0.291
GUGCUCUUUCACGUGCGCGUGAAAGAGAGAAGUGUACCAGAGAAACACACGUUGUGGUAUAUUACCUGGUA | 0.202
GUGCUCUUUCACGUGCGCGUGAAAGAGAGAAGUGACCCAGAGAAACACACGUUGUGGUAUAUUACCUGGUA | 0.165
GUGCUCUUUCACGUGCGCGUGAAAGAGAGAAGUGAACCCGAGAAACACACGUUGUGGUAUAUUACCUGGUA | 0.202
GUGCUCUUUCACGUGCGCGUGAAAGAGAGAAGUGAACCAGCGAAACACACGUUGUGGUAUAUUACCUGGUA | 0.341
GUGCUCUUUCACGUGCGCGUGAAAGAGAGAAGUGAACCAGUGAAACACACGUUGUGGUAUAUUACCUGGUA | 0.527
GUGCUCUUUCACGUGCGCGUGAAAGAGAGAAGUGAACCAGAGAUACACACGUUGUGGUAUAUUACCUGGUA | 0.114
GUGCUCUUUCACGUGCGCGUGAAAGAGAGAAGUGAACCAGAGAACCACACGUUGUGGUAUAUUACCUGGUA | 0.0981
GUGCUCUUUCACGUGCGCGUGAAAGAGAGAAGUGAACCAGAGAAGCACACGUUGUGGUAUAUUACCUGGUA | 0.118
GUGCUCUUUCACGUGCGCGUGAAAGAGAGAAGUGAACCAGAGAAACCCACGUUGUGGUAUAUUACCUGGUA | 0.0701
GUGCUCUUUCACGUGCGCGUGAAAGAGAGAAGUGAACCAGAGAAACACACGUUGUGGUGUAUUACCUGGUA | 0.0582
GUGCUCUUUCACGUGCGCGUGAAAGAGAGAAGUGAACCAGAGAAACACACGUUGUGGUUUAUUACCUGGUA | 0.164
GUGCUCUUUCACGUGCGCGUGAAAGAGAGAAGUGAACCAGAGAAACACACGUUGUGGUAUCUUACCUGGUA | 0.168
GUGCUCUUUCACGUGCGCGUGAAAGAGAGAAGUGAACCAGAGAAACACACGUUGUGGUAUAUUUCCUGGUA | 0.134
GUGCUCUUUCACGUGCGCGUGAAAGAGAGAAGUGAACCAGAGAAACACACGUUGUGGUAUAUUACCUGGUC | 0.58
GUGCUCUUUCACGUGCGCGUGAAAGAGAGAAGUGAACCAGAGAAACACACGUUGUGGUAUAUUACCUGGUU | 0.148
GUGUUCUUUCACGUGCGCGUGAAAGAGAGAAGUGAACCAGAGAAACACACGUUGUGGUAUAUUACCUGGUA | 0.277
GUGCUGUUUCACGUGCGCGUGAAAGAGAGAAGUGAACCAGAGAAACACACGUUGUGGUAUAUUACCUGGUA | 0.214
GUGCUUUUUCACGUGCGCGUGAAAGAGAGAAGUGAACCAGAGAAACACACGUUGUGGUAUAUUACCUGGUA | 0.295
GUGCUCUUUAACGUGCGCGUGAAAGAGAGAAGUGAACCAGAGAAACACACGUUGUGGUAUAUUACCUGGUA | 0.18
GUGCUCUUUCAGGUGCGCGUGAAAGAGAGAAGUGAACCAGAGAAACACACGUUGUGGUAUAUUACCUGGUA | 0.199
GUGCUCUUUCACGUGGGCGUGAAAGAGAGAAGUGAACCAGAGAAACACACGUUGUGGUAUAUUACCUGGUA | 0.34
GUGCUCUUUCACGUGCGAGUGAAAGAGAGAAGUGAACCAGAGAAACACACGUUGUGGUAUAUUACCUGGUA | 0.34
GUGCUCUUUCACGUGCGCGUGAAAGAGAGAAGUGAAGCAGAGAAACACACGUUGUGGUAUAUUACCUGGUA | 0.0959

Variant | self-cleavage
GUGCUCUUUCACGUGCGCGUGAAAGAGAGAAGUGAAUCAGAGAAACACACGUUGUGGUAUAUUACCUGGUA | 0.189
GUGCUCUUUCACGUGCGCGUGAAAGAGAGAAGUGAACAAGAGAAACACACGUUGUGGUAUAUUACCUGGUA | 0.119
GUGCUCUUUCACGUGCGCGUGAAAGAGAGAAGUGAACCAGAGAAAAACACGUUGUGGUAUAUUACCUGGUA | 0.0768
GUGCUCUUUCACGUGCGCGUGAAAGAGAGAAGUGAACCAGAGAAAUACACGUUGUGGUAUAUUACCUGGUA | 0.101
GUGCUCUUUCACGUGCGCGUGAAAGAGAGAAGUGAACCAGAGAAACAUACGUUGUGGUAUAUUACCUGGUA | 0.0425
GUGCUCUUUCACGUGCGCGUGAAAGAGAGAAGUGAACCAGAGAAACACACGUUGUGGUAUAUUAGCUGGUA | 0.0169
GUGCUCUUUCACGUGCGCGUGAAAGAGAGAAGUGAACCAGAGAAACACACGUUGUGGUAUAUUACAUGGUA | 0.101
GUGCUCUUUCACAUGCGCGUGAAAGAGAGAAGUGAACCAGAGAAACACACGUUGUGGUAUAUUACCUGGUA | 0.255
GUGCUCUUUCACCUGCGCGUGAAAGAGAGAAGUGAACCAGAGAAACACACGUUGUGGUAUAUUACCUGGUA | 0.321
GUGCUCUUUCACGUCCGCGUGAAAGAGAGAAGUGAACCAGAGAAACACACGUUGUGGUAUAUUACCUGGUA | 0.493
GUGCUCUUUCACGUGCACGUGAAAGAGAGAAGUGAACCAGAGAAACACACGUUGUGGUAUAUUACCUGGUA | 0.388
GUGCUCUUUCACGUGCGCGUGAAACAGAGAAGUGAACCAGAGAAACACACGUUGUGGUAUAUUACCUGGUA | 0.0885
GUGCUCUUUCACGUGCGCGUGAAAGAGACAAGUGAACCAGAGAAACACACGUUGUGGUAUAUUACCUGGUA | 0.0773
GUGCUCUUUCACGUGCGCGUGAAAGAGAUAAGUGAACCAGAGAAACACACGUUGUGGUAUAUUACCUGGUA | 0.0672
GUGCUCUUUCACGUGCGCGUGAAAGAGAGAAGUGAACCAGACAAACACACGUUGUGGUAUAUUACCUGGUA | 0.103
GUGCUCUUUCACGUGCGCGUGAAAGAGAGAAGUGAACCAGAGAAACACACAUUGUGGUAUAUUACCUGGUA | 0.369
GUGCUCUUUCACGUGCGCGUGAAAGAGAGAAGUGAACCAGAGAAACACACCUUGUGGUAUAUUACCUGGUA | 0.238
GUGCUCUUUCACGUGCGCGUGAAAGAGAGAAGUGAACCAGAGAAACACACGUUCUGGUAUAUUACCUGGUA | 0.126
GUGCUCUUUCACGUGCGCGUGAAAGAGAGAAGUGAACCAGAGAAACACACGUUUUGGUAUAUUACCUGGUA | 0.175
GUGCUCUUUCACGUGCGCGUGAAAGAGAGAAGUGAACCAGAGAAACACACGUUGUAGUAUAUUACCUGGUA | 0.115
GUGCUCUUUCACGUGCGCGUGAAAGAGAGAAGUGAACCAGAGAAACACACGUUGUCGUAUAUUACCUGGUA | 0.112
GUGCUCUUUCACGUGCGCGUGAAAGAGAGAAGUGAACCAGAGAAACACACGUUGUUGUAUAUUACCUGGUA | 0.157
GUGCUCUUUCACGUGCGCGUGAAAGAGAGAAGUGAACCAGAGAAACACACGUUGUGAUAUAUUACCUGGUA | 0.102
GUGCUCUUUCACGUGCGCGUGAAAGAGAGAAGUGAACCAGAGAAACACACGUUGUGCUAUAUUACCUGGUA | 0.0572
